Test results: PMC9785812 (Pharmaceutics, 2022)
Read-outs that look alike come from different tables or passages of the source.

Experiment: Ex vivo biodistribution in healthy BALB/c mice
Set-up: species or system mouse
Details: mouse, iv; for tissue uptake dose at 1 h / tissue uptake dose at 24 h / tissue uptake dose at 72 h / SUV at 1 h / SUV at 4 h / SUV at 24 h / SUV at 72 h / tissue uptake dose at 4 h: total radioactivity
Description: Quantification of activity was performed with an automated gamma counter equipped with a 3-in NaI(Tl) detector coupled to a multichannel analyzer (2480 Wizard^2, Perkin Elmer, Zaventem, Belgium). The results were corrected for background signal, physical decay during counting and detector dead time.
All animal experiments were performed in compliance with the Ethical Committee Animal Studies of Medanex Clinic (EC MxCl 2020-163 and EC MxCl 2021-173), the Belgian laboratory animal legislation and the European Communities Council Directive of 22 September 2010 (2010/63/EU). Male BALB/c and NMRI nude mice were purchased from Janvier (Bio Services, Uden, The Netherlands) and housed in ventilated cages under standard laboratory conditions (12 h light/dark cycle) at the animal facility of SCK CEN. All animals had access to food and water ad libitum.
Additionally, similar biodistribution studies were performed with free (unlabeled) [^153Sm]SmCl3 to identify the organs with ^153Sm accumulation in case of release from the complex. […] The mice were sacrificed by an overdose pentobarbital (200 µL of 60 mg/mL) 1, 4, 24 and 72 h post-injection (p.i.) (n = 3–4 per time point). Blood was collected via cardiac puncture. Organs of interest were collected in tared tubes and weighed. The activity in the different organs was measured in the gamma counter. For the calculation of the total activity in the blood, bone and muscle, the masses were assumed to be, respectively, 7, 12 and 40% of the total body mass. Data were expressed as a percentage of injected activity (%IA) and standardized uptake value (SUV). %IA was calculated as (counts per min (cpm) in organ)/(IA converted to cpm) × 100. SUV was calculated as (activity in cpm in organ/weight of organ in g)/(IA/total body weight in g).

[1] = male, BALB/c, bone, read-out: Bone %IA
[2] = male, BALB/c, bone, read-out: Bone SUV
[3] = male, BALB/c, in vivo, read-out: Excreted %IA
[4] = male, BALB/c, intestines, read-out: Intestines %IA
[5] = male, BALB/c, kidneys, read-out: Kidneys SUV
[6] = male, BALB/c, liver, read-out: Liver SUV
[7] = male, BALB/c, muscle, read-out: Muscle %IA
[8] = male, BALB/c, pancreas, read-out: Pancreas %IA
[9] = male, BALB/c, spleen, read-out: Spleen %IA
[10] = male, BALB/c, spleen, read-out: Spleen SUV

C[C@@H](O)[C@H](NC(=O)[C@@H]1CSSC[C@H](NC(=O)[C@@H](Cc2ccccc2)NC(=O)CN2CCN(CC(=O)O)CCN(CC(=O)O)CCN(CC(=O)O)CC2)C(=O)N[C@@H](Cc2ccc(O)cc2)C(=O)N[C@H](Cc2c[nH]c3ccccc23)C(=O)N[C@@H](CCCCN)C(=O)N[C@@H]([C@@H](C)O)C(=O)N1)C(=O)O [[^153Sm]Sm-DOTA-TATE, metal not drawn]
tissue uptake dose at 1 h (male, BALB/c, blood, read-out: Blood %IA): 0.7 ± 0.3 %ID | tissue uptake dose at 1 h [1]: 0.8 ± 0.4 %ID | tissue uptake dose at 24 h [1]: 0.7 ± 0.1 %ID | tissue uptake dose at 72 h [1]: 0.6 ± 0.1 %ID | SUV at 1 h [2]: 0.1 SUV | SUV at 4 h [2]: 0.1 SUV | SUV at 24 h [2]: 0.1 SUV | SUV at 72 h [2]: 0.1 SUV | SUV at 1 h (male, BALB/c, heart, read-out: Heart SUV): 0.1 SUV | tissue uptake dose at 1 h [3]: 82 ± 4.8 %ID | tissue uptake dose at 4 h [3]: 90.2 ± 0.7 %ID | tissue uptake dose at 24 h [3]: 96.6 ± 0.4 %ID | tissue uptake dose at 1 h [4]: 0.6 ± 0.1 %ID | tissue uptake dose at 4 h [4]: 0.5 %ID | tissue uptake dose at 72 h [4]: 0.1 %ID | tissue uptake dose at 4 h (male, BALB/c, kidneys, read-out: Kidneys %IA): 3.2 ± 0.1 %ID | SUV at 24 h [5]: 0.4 ± 0.1 SUV | SUV at 72 h [5]: 0.1 SUV | tissue uptake dose at 4 h (male, BALB/c, liver, read-out: Liver %IA): 2.5 ± 0.8 %ID | SUV at 1 h [6]: 0.4 ± 0.1 SUV | SUV at 24 h [6]: 0.3 SUV | tissue uptake dose at 1 h (male, BALB/c, lungs, read-out: Lungs %IA): 0.1 %ID | SUV at 4 h (male, BALB/c, lungs, read-out: Lungs SUV): 0.1 SUV | tissue uptake dose at 4 h [7]: 1.1 ± 0.5 %ID | tissue uptake dose at 24 h [7]: 0.1 %ID | tissue uptake dose at 72 h [7]: 0.1 %ID | SUV at 1 h (male, BALB/c, muscle, read-out: Muscle SUV): 0.6 ± 0.3 SUV | tissue uptake dose at 1 h [8]: 0.1 %ID | tissue uptake dose at 4 h [8]: 0.1 %ID | SUV at 4 h (male, BALB/c, pancreas, read-out: Pancreas SUV): 0.1 SUV | tissue uptake dose at 1 h [9]: 0.3 ± 0.1 %ID | tissue uptake dose at 4 h [9]: 0.3 %ID | tissue uptake dose at 24 h [9]: 0.3 ± 0.1 %ID | tissue uptake dose at 72 h [9]: 0.1 %ID | SUV at 24 h [10]: 0.9 ± 0.3 SUV | SUV at 72 h [10]: 0.3 ± 0.1 SUV | tissue uptake dose at 4 h (male, BALB/c, stomach, read-out: Stomach %IA): 0.1 ± 0.1 %ID | SUV at 1 h (male, BALB/c, whole blood, read-out: Blood SUV): 0.1 SUV | tissue uptake dose at 4 h (blood, 4 h p.i., healthy male BALB/c mice, ~2-3 MBq i.v., mean ± SD, n = 3-4, read-out: Blood %IA): 0.2 %ID | tissue uptake dose at 4 h (bone, 4 h p.i., healthy male BALB/c mice, ~2-3 MBq i.v., mean ± SD, n = 3-4, read-out: Bone %IA): 0.6 ± 0.2 %ID | Blood %IA (in vivo): 0.0 ± 0.0 %IA | Blood SUV (in vivo): 0.0 ± 0.0 | Brain %IA (in vivo): 0.0 ± 0.0 %IA | Brain SUV (in vivo): 0.0 ± 0.0 | Heart %IA (in vivo): 0.0 ± 0.0 %IA | Heart SUV (in vivo): 0.0 ± 0.0 | Lungs %IA (in vivo): 0.0 ± 0.0 %IA | Lungs SUV (in vivo): 0.0 ± 0.0 | Muscle SUV (in vivo): 0.0 ± 0.0 | Pancreas %IA (in vivo): 0.0 ± 0.0 %IA | Pancreas SUV (in vivo): 0.0 ± 0.0 | Stomach %IA (in vivo): 0.0 ± 0.0 %IA | tissue uptake dose at 72 h (in vivo, 72 h p.i., healthy male BALB/c mice, ~2-3 MBq i.v., mean ± SD, n = 3-4, read-out: Excreted %IA): 97.8 ± 0.2 %ID | tissue uptake dose at 24 h (intestines, 24 h p.i., healthy male BALB/c mice, ~2-3 MBq i.v., mean ± SD, n = 3-4, read-out: Intestines %IA): 0.2 %ID | tissue uptake dose at 24 h (kidneys, 24 h p.i., healthy male BALB/c mice, ~2-3 MBq i.v., mean ± SD, n = 3-4, read-out: Kidneys %IA): 0.7 ± 0.2 %ID | tissue uptake dose at 72 h (kidneys, 72 h p.i., healthy male BALB/c mice, ~2-3 MBq i.v., mean ± SD, n = 3-4, read-out: Kidneys %IA): 0.2 %ID | SUV at 4 h (liver, 4 h p.i., healthy male BALB/c mice, ~2-3 MBq i.v., mean ± SD, n = 3-4, read-out: Liver SUV): 0.5 ± 0.2 SUV | tissue uptake dose at 24 h (liver, 24 h p.i., healthy male BALB/c mice, ~2-3 MBq i.v., mean ± SD, n = 3-4, read-out: Liver %IA): 1.6 ± 0.2 %ID | tissue uptake dose at 72 h (liver, 72 h p.i., healthy male BALB/c mice, ~2-3 MBq i.v., mean ± SD, n = 3-4, read-out: Liver %IA): 1.2 ± 0.2 %ID | SUV at 72 h (liver, 72 h p.i., healthy male BALB/c mice, ~2-3 MBq i.v., mean ± SD, n = 3-4, read-out: Liver SUV): 0.2 SUV | SUV at 1 h (lungs, 1 h p.i., healthy male BALB/c mice, ~2-3 MBq i.v., mean ± SD, n = 3-4, read-out: Lungs SUV): 0.2 SUV | SUV at 4 h (muscle, 4 h p.i., healthy male BALB/c mice, ~2-3 MBq i.v., mean ± SD, n = 3-4, read-out: Muscle SUV): 0.2 ± 0.1 SUV | SUV at 1 h (pancreas, 1 h p.i., healthy male BALB/c mice, ~2-3 MBq i.v., mean ± SD, n = 3-4, read-out: Pancreas SUV): 0.2 SUV | SUV at 1 h (spleen, 1 h p.i., healthy male BALB/c mice, ~2-3 MBq i.v., mean ± SD, n = 3-4, read-out: Spleen SUV): 0.8 ± 0.2 SUV | SUV at 4 h (spleen, 4 h p.i., healthy male BALB/c mice, ~2-3 MBq i.v., mean ± SD, n = 3-4, read-out: Spleen SUV): 0.8 ± 0.2 SUV | tissue uptake dose at 1 h (stomach, 1 h p.i., healthy male BALB/c mice, ~2-3 MBq i.v., mean ± SD, n = 3-4, read-out: Stomach %IA): 0.2 %ID
